The values that follow come from paper PMC6308133.

The target in the assay is yeast Nsp1p FG-fragment Nsp1p-12FF (residues 262-492; 1xFG, 11xFSFG) (yeast) (UniProt P14907). In words: plasmonic nanopore sensing (shift of the extinction dip); cNsp1 grafted to the interior silicon nitride walls of smaller nanopores (upper diameter 80-90 nm, lower 50-60 nm); Kapβ1 added in increasing concentrations in PBS; equilibrium dip shift averaged over ~10 min; fit to a two component Langmuir isotherm.

With “karyopherinβ1 (from UniProt Q14974 1-876) (natural protein)”, the K1 (two component Langmuir isotherm, configuration 1) was determined as 341 nM and the K2 (two component Langmuir isotherm, configuration 2) came out at 3.8 µM.
